Experimental data as given in patent US20220056094A1 (JIANGSU HENGRUI MEDICINE, published 2022).
Substitutions are numbered along the chain they refer to. Names and notes keep the numbering of the source. Read-outs that look alike come from different tables or passages of the source. Blank lines part the entries; values can stand above or below the binder they belong to.

Experiments:
[1] = molecular target: T1, high-affinity receptor IL-2Rα/β/γ on CTLL2 cells (mouse-derived cell line) (mouse, UniProt P01590 22-268; P16297 27-539; P34902 23-369); assay: cell-based or functional assay
T1 sequence (looked up) 1: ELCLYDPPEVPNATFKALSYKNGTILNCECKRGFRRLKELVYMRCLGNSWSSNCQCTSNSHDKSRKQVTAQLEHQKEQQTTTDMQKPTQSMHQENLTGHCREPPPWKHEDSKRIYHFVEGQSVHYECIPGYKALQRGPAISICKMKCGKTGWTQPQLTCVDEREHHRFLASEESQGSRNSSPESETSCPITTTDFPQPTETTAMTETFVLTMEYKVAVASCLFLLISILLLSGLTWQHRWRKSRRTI
T1 sequence (looked up) 2: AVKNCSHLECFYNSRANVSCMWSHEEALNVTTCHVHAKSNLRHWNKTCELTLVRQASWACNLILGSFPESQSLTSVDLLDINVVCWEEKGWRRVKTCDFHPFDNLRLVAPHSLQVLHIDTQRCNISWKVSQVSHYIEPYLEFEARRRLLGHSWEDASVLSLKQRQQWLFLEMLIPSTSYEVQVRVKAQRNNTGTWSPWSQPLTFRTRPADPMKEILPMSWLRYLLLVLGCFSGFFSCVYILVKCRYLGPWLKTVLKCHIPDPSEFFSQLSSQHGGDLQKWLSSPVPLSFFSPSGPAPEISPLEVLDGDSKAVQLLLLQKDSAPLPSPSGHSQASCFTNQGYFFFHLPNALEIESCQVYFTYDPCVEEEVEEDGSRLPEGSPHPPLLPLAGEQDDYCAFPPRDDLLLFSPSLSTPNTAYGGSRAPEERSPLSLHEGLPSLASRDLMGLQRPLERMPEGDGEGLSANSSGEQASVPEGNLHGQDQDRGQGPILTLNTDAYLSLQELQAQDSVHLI
T1 sequence (looked up) 3: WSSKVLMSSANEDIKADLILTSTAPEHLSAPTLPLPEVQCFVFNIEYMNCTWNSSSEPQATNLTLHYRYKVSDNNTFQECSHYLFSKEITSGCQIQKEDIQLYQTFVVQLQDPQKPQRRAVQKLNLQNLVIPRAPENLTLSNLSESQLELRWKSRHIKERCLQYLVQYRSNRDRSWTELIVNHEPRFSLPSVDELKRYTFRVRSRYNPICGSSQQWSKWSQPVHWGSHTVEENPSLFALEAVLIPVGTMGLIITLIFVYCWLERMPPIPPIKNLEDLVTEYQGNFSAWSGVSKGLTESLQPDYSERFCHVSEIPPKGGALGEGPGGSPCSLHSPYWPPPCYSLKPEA

[2] = molecular target: T2, IL-2Rβ/γ-Fc heterodimer (IL-2Rβ-Fc-hole with IL-2Rγ-Fc-knob); assay: SPR (Biacore), IL-2Rβ/γ-Fc captured on Protein A chip, 1:1 model
T2 construct: Co-expressed in HEK293 cells and purified with Protein A and Superdex 200
Method: (§1) The Protein A sensor chip (GE, Cat #29127556) of the Biacore instrument (Biacore T200, GE) was used to capture IL-2Rβ/γ-Fc, wherein IL-2Rβ/γ-Fc was diluted with 1×HBS-EP to 1 μg/mL, and flowed at a flow rate of 10 μL/min for 30 seconds. […] The Biacore instrument (Biacore X100, GE) was used to detect the reaction in real time, to obtain association and dissociation curves. After each cycle of dissociation was completed, the chip was washed and regenerated with 10 mM Gly-HCl pH 1.5.
Target sequence in this assay (chain, as listed by the source limits assumed, chain 1 of 2): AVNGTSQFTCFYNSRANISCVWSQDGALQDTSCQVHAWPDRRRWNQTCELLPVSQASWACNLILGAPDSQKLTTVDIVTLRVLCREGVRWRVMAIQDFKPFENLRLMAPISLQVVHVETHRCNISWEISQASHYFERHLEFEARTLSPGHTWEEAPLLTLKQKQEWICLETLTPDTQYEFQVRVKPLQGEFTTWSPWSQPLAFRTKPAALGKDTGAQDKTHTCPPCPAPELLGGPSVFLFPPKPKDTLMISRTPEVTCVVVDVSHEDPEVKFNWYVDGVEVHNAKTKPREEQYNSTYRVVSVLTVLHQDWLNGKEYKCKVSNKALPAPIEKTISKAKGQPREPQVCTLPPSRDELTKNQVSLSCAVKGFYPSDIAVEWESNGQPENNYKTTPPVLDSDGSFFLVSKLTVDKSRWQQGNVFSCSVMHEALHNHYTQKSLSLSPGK
Target sequence in this assay (chain, as listed by the source limits assumed, chain 2 of 2): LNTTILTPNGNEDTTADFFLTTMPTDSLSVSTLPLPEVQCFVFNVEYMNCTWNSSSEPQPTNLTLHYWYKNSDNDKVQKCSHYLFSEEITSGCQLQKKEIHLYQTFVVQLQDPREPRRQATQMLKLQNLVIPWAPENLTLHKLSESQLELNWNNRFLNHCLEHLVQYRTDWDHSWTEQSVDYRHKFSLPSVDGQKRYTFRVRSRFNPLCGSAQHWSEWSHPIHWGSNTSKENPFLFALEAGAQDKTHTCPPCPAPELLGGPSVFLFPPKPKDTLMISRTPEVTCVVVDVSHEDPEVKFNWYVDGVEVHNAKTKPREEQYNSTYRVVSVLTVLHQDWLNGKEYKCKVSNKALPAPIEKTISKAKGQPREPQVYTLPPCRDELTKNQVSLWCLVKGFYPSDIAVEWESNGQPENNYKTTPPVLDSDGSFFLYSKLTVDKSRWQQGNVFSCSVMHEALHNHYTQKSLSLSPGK

[3] = molecular target: T3, his-tagged human IL-2Rα recombinant protein (SinoBiological, Cat #10165-H08H) (human, UniProt P01589 22-213); assay: ELISA, his-tagged IL-2Rα coated, HRP anti-IL-2 polyclonal detection
T3 construct: Bought protein; also called IL-2Rα (His Tag)
T3 sequence: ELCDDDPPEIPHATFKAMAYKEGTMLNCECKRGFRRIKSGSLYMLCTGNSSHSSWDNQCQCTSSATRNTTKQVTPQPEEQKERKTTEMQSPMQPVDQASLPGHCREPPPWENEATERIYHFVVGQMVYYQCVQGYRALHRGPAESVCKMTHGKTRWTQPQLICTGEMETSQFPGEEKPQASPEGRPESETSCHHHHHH
Method: 96-well microtiter plate was coated with 2 μg/mL his-tagged IL-2Rα recombinant protein (SinoBiological, Cat #10165-H08H), and incubated overnight at 4° C. The plate was washed with washing solution for three times, 250 μl per well. For each time of washing, the plate was shaken for 10 seconds to ensure sufficient washing. 200 μl/well blocking solution was added and incubated at room temperature for 2 hours. The plate was washed with washing solution for three times, 250 μl per well. For each time of washing, the plate was shaken for 10 seconds to ensure sufficient washing. […] The plate was incubated for 1 hour at room temperature. The plate was washed with washing solution for three times, 250 μl per well. […] The plate was incubated for 1 hour at room temperature. The plate was washed with washing solution for three times, 250 μl per well. 100 μl TMB was added to each well, and the reaction was performed for 15 minutes in the dark. 50 μl of 0.16 M sulfuric acid was added to each well.

[4] = molecular target: T4, IL-2 receptor IL-2Rα/β/γ on human peripheral blood Treg cells (human, UniProt P01589 22-272; P14784 27-551; P31785 23-369); assay: cell-based or functional assay
T4 sequence (looked up) 1: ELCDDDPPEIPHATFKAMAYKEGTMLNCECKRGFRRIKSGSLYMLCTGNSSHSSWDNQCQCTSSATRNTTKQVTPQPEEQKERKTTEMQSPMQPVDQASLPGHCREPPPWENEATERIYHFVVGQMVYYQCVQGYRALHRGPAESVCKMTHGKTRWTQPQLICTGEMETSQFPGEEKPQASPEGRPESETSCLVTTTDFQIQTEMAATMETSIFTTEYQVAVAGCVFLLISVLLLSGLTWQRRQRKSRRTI
T4 sequence (looked up) 2: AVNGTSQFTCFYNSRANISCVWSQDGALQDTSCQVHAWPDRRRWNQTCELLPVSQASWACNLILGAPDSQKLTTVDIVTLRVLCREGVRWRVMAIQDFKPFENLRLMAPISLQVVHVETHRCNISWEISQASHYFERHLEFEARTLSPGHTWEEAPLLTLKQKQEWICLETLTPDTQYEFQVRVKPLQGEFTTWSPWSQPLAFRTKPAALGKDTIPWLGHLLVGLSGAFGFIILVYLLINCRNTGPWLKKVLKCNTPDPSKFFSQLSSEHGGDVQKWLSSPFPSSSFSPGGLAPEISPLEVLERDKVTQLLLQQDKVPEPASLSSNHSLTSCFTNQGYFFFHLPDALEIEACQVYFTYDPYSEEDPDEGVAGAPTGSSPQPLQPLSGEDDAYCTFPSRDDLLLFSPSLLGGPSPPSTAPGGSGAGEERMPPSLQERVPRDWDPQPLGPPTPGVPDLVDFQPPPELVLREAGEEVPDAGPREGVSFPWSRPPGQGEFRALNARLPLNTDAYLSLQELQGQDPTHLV
T4 sequence (looked up) 3: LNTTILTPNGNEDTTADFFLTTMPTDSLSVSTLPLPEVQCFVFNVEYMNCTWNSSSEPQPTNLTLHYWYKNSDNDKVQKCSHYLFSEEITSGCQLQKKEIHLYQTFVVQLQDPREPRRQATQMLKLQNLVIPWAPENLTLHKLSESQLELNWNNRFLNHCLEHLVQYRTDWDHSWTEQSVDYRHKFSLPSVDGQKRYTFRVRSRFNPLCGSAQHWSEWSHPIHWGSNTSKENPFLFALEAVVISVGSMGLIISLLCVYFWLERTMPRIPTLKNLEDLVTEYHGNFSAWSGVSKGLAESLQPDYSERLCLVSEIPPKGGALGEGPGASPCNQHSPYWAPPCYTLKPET

[5] = molecular target: T3, his-tagged human IL-2Rα recombinant …; assay: BLI (Octet RED96e), His-tagged IL-2Rα on HIS1K sensor; column printed as 'affinity (nM)'
[6] = molecular target: T1, high-affinity receptor IL-2Rα/β/γ on …; assay: cell-based or functional assay; remark: listed apart in the source
[7] = molecular target: T5, medium-affinity receptor IL-2Rβ/γ on human cells (Mo7e cell line; human CD8+T and NK cells) (human, UniProt P14784 27-551; P31785 23-369); assay: cell-based or functional assay
T5 sequence (looked up) 1: T4 sequence (looked up) 2
T5 sequence (looked up) 2: T4 sequence (looked up) 3

[8] = molecular target: T3, his-tagged human IL-2Rα recombinant …; assay: BLI (Octet RED96e), His-tagged IL-2Rα on HIS1K sensor
Method: The HIS1K biosensor (Fortebio, 18-5120) was immersed into 200 μL buffer (PBS, pH 7.4, 0.02% tween-20, 0.1% BSA) for 10 minutes, for wetting treatment. Then, human IL-2Rα with His tag (SinoBiological, Cat #10165-H08H) was dissolved in PBS pH 7.4, 0.02% tween-20 and 0.1% BSA, and the sensor was placed in 200 μL of such solution. The sensor was placed in 200 μL buffer (PBS pH 7.4, 0.02% tween-20, 0.1% BSA) to wash off the excess IL-2Rα.

[9] = molecular target: T2, IL-2Rβ/γ-Fc heterodimer (IL-2Rβ-Fc-hole …); assay: SPR (Biacore), IL-2Rβ/γ-Fc captured on Protein A chip
Method: as §1

[10] = molecular target: T5, medium-affinity receptor IL-2Rβ/γ on …; assay: cell-based or functional assay; remark: listed apart in the source
[11] = molecular target: T5, medium-affinity receptor IL-2Rβ/γ on …; assay: cell-based or functional assay; remark: listed apart in the source

B1: IL-2-05 (G27C/F78C) (ligand)
chain: MAPTSSSTKKTQLQLEHLLLDLQMILNCINNYKNPKLTRMLTFKFYMPKKATELKHLQCLEEELKPLEEVLNLAQSKNCHLRPRDLISNINVIVLELKGSETTFMCEYADETATIVEFLNRWITFAQSIISTLT
notes: The entry already carries the mutations and C125A and begins with M. Made in E. coli
relative biological activity (CTLL2 cell proliferation) [1]: 229% | Kd [2]: 0.288 nM | koff [2]: 9.68e-05 s⁻¹ | kon [2]: 336000 M⁻¹ s⁻¹ | EC50 [3]: 0.6 nM

B2: IL-2-24 (N26Q/N29S/N88R) (ligand)
chain: B1 chain with N27Q, C28G, N30S, C79F, N89R
EC50 (STAT5 phosphorylation in human Treg cells) [4]: 0.209 nM | relative biological activity (STAT5 phosphorylation in human Treg cells) [4]: 0.2% | Kd [5]: 11.8 nM

B4: PEGylated IL-2-10 (ligand)
chain: B1 chain with N27Q, C28G, N31S, F43A, L73G, C79F
modifications: mono-PEGylated with 20 kDa mPEG-butyraldehyde (sodium cyanoborohydride); site not stated
notes: also called PEG-IL-2-10
EC50 (CTLL2 cell proliferation) [6]: 35.3 nM | relative biological activity (CTLL2 cell proliferation) [6]: 0.2% | EC50 (Mo7e cell proliferation) [7]: 13.2 nM | relative biological activity (Mo7e cell proliferation) [7]: 19% | EC50 (STAT5 phosphorylation in human Treg cells) [4]: 2.65 nM | relative biological activity (STAT5 phosphorylation in human Treg cells) [4]: 0.02% | EC50 (STAT5 phosphorylation in human CD8+T cells) [10]: 8.97 nM | relative activity (STAT5 phosphorylation in human CD8+T cells) [10]: 26% | EC50 (STAT5 phosphorylation in human NK cells) [11]: 2 nM | relative activity (STAT5 phosphorylation in human NK cells) [11]: 24% | binding result [8]: no binding (tested: 133.3 nM) | Kd [9]: 0.86 nM | koff [9]: 0.00119 s⁻¹ | kon [9]: 1.38e+06 M⁻¹ s⁻¹

More lines, now with the values ahead:

EC50 (CTLL2 cell proliferation) [6]: 39.2 nM | relative biological activity (CTLL2 cell proliferation) [6]: 0.1% | EC50 (Mo7e cell proliferation) [7]: 34.8 nM | relative biological activity (Mo7e cell proliferation) [7]: 7% | binding result [8]: no binding (tested: 133.3 nM) | Kd [9]: 3.54 nM | koff [9]: 0.000549 s⁻¹ | kon [9]: 155000 M⁻¹ s⁻¹
B3: PEGylated IL-2-22 (ligand)
chain: B1 chain with N27Q, C28G, N30S, F43A, N72Q, L73G, C79F
modifications: mono-PEGylated with 20 kDa mPEG-butyraldehyde (sodium cyanoborohydride); site not stated
notes: also called PEG-IL-2-22

EC50 (Mo7e cell proliferation) [7]: 23.4 nM | relative biological activity (Mo7e cell proliferation) [7]: 10% | EC50 (STAT5 phosphorylation in human Treg cells) [4]: 4.24 nM | relative biological activity (STAT5 phosphorylation in human Treg cells) [4]: 0.01% | EC50 (STAT5 phosphorylation in human CD8+T cells) [10]: 14.4 nM | relative activity (STAT5 phosphorylation in human CD8+T cells) [10]: 16% | EC50 (STAT5 phosphorylation in human NK cells) [11]: 2.88 nM | relative activity (STAT5 phosphorylation in human NK cells) [11]: 17% | binding result [8]: no binding (tested: 133.3 nM) | Kd [9]: 1.86 nM | koff [9]: 0.000649 s⁻¹ | kon [9]: 350000 M⁻¹ s⁻¹
B5: PEGylated IL-2-23 (ligand)
chain: MAPTSSSTKKTCLQLEHLLLDLQMILNGIQSMHIDATLYMPKKATELKHLQCLEEELKPLEEVLNLAQSKNFHLRPRDLISNINVIVLELKGSETTFMCEYADETATIVEFLNRWITFAQSIISTCT
modifications: mono-PEGylated with 20 kDa mPEG-butyraldehyde (sodium cyanoborohydride); site not stated
notes: also called PEG-IL-2-23
